From the nanobody polyreactivity screen of Harvey et al. (2022)

Test: yeast display, Sf9 membrane polyspecificity reagent, FACS + sequencing; frameworks hold sequencing errors
In short: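 Nanobodies from a synthetic yeast display library (Saccharomyces cerevisiae BJ5465), induced 36–48 hours with galactose, were stained 1 hour at 4 °C with 10% biotinylated, detergent-solubilized Sf9 membrane reagent, enriched on streptavidin microbeads, then FACS-sorted. Anti-HA (expression) and streptavidin (reagent binding) fluorescence set low and high (top ~1%) gates. Polyreactivity labels come from the gate of origin. Genes were colony-PCR amplified, MiSeq 2 × 250 sequenced and filtered by CDR length.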

| Sequence | polyreactivity (PSR sort gate) |
| --- | --- |
| QVQLVESGGGLVQAGGSLRLSCAASGSTFFPYAMGWYRQAPGKERELVAAIRWSGGRTYYADSVKGRFTISRDNAKNTVYLQMNSLNPEDTAVYYCAAAKYLDYDYWGQGTQVTVSS | high polyreactivity |
| QVQLVESGGGLVQSGGSLRLTCAASGSILWYNGMGWYSQAPGKERELVAAITSGGSTNYADSVKGRFTISRDNAKNTFYLHMNSLKPEDTEVYYCKARPYWFGSYGYWGQGTKVTVSS | low polyreactivity |
| QDQLGESGGGLVQAGGSLRLSCAAAGSIFGTNAMGWYRQAPGKEREFVATISSRTGSTYYADSVKGRFTISRDNAKNRVYLQMNSLKPEDPAVYYCAAVRWYGKYDDWGQGTQVTVSS | low polyreactivity |
| QVQLVESGGRLVQAGGSLRLSCAASGGTFGQYAMGWYRQAPGKERELVAAISRGGDSTYSADSVKGRFTISRDNAKNTVYLQMNSLKPADTAVYYCAAPGISYYSRYYYRTYDYWGQGTQVTVSS | high polyreactivity |
| QVQLVESGGGLVQAGGSLRLSCAASGFTFGRYAMGWYRPAPGKERELVAAISRSGGRTYYADTVKGRFTISRDNAKNTVYLQMNSLKPEHTAVYYCAAYGGVEDDYWGQGTQVTVSS | low polyreactivity |
| QVQLVESGGGLVQAGGSLRLSCAASGSTFQFYAMGWYRQAPGKEREFVAAITTRSGSTYYADSVKGRFTISRDNAKNTVYLQMNSLKPEDTAVYYCAAYIYGHSSDSVRYEYWGQGTQVTVSS | low polyreactivity |
| QVQLVESGGGLVQAGGSLRLSCAASGSTFRVYGMGWYRQAPGKERELDAAIRWIGGRTYYADSVKGRFTISRDNAKNTVYLQMNSLKAEDTAVYYCNARAGPVRFDYWGQGTQVTVSS | low polyreactivity |
| QVQLVESGGGLVQAGGSLRLSCAASGFIFARNTMGWYRQAPGKERELVAAITKSGGSTNYADSVKGRFTISRDNAKNTVYLQMNSLKPEDTAVYYCAARTYTLRGVYFSGYNYWGQGTQVTVSS | low polyreactivity |
| QVQLVESGGGLVQAGGSLRLSCAASGSIFPVYAMGWYRQAPGKERELVAAISSRGGTTYYADSVKGRFTISRDNAKNTVYLQMNSLKPEDTAVYYCAATRSGKYYGTRRKYGYWGQGTQVTVSS | high polyreactivity |
| LVQLVESGGGLVQAGGSLRLSCAASGSTFDYYAMGWYRQAPGQERELVAAISGSGDRTYYADSVKGRFTISRDNAKNTVYLQMNSLKPEDTAVYYCAKYGRTRFYYWGQGTQVTVSS | high polyreactivity |
| QVQLVESGGGLFQAGGSLRLSCAPSGSIIIRNAMGWYRQAPGKEREWVAVISSSVGRTYYADSVKGRFTISRDTAKNTVYVQMNSLKPEVTAVYYCAARWYSGYGRFDYWGQVTQVTVSS | high polyreactivity |
| QVQLVESGGGLVQAGGSLRLSCAASGIIFQRNDIGWYREAPGKERELVANIRDGGITYADSVKGRFTISRDNAKNTVYLQMNSLKPDDTAVYYCALEDTSPGYGDQSSNAAYYYWGQGTQVTVSS | low polyreactivity |
| QVQLVESGGGLVQAGGSLRLSCAASGYIFGWYAMGWYRQAPGKERELVATIDWSGDSTYYADSVKGRFTISRDNAKNTVYLQMNSLKPEDTAVYYCAVGYSYYPSDEFDYWGQGTQVTVSS | low polyreactivity |
| QVQLVESVGGLVQAGGSLRLSCAASGGTFKTNAMGWYIQAPGKERELVAAITGSGTSTYYADSVKGRFTISRDNAKNTVYLQMNSLKPEDTAVYYCAADKLYQPGIGDDYWGQGNQVTVSS | low polyreactivity |
| QFQLVESGGGLVQAGGSLRLSCAASGSTFRIYTMGWYRQAPGKHRELVAGISSSGNTNYADSVKGRFTISRDNAKNTVYLQMYSLKPEDTAVYYCAAVQPAWGNGYWGQGTQVTVSS | high polyreactivity |
| QVQLVESGRGLVQAGGSLRISCASSGNTFVYNPMGWYRQAPGKERELVAAIDSGGSTNYADSVKGRFTISRDNAKNTVYLQMNSLKPEDTAVYYCNRTSVYDYYWGQGTQGTVSS | low polyreactivity |
| QVQLVESGGGLVQAGGSLRLSCAASGSIFGTYAMRWYIQAPGKERDLVATISYGDGYTYYADSVKGRFTISRDNAKNTVYLLMNSLKPEDTPVYYCNTGVFSSGGPLVYWGEGTQVTVSS | low polyreactivity |
| QVQLVESGGGLVQAGGSLRISCAASGSTSYNYVMGWYRQAPGKERELVAGITWSDDITYYADSVKGRFTISRDNAKNTVYLQMNSLKPEDTAVYYCAAEDRPLYWRFPDEMDYWGQGTQVTVSS | low polyreactivity |
| QVQLVESGGGLVQAGGSLRLSCAASGRIFGPYVMGWYRQAPGKERDFVAAISRRTGSTYYADSVKGRFTISRDNAKNTVYLQMNSLKPEDTAVYYCAATYYFSHVVGYGYWGQGTQVTVSS | high polyreactivity |
| QVQLVESGGGLVQAGGSLRLSCAASGFTFRRYAMGWYRQAPGKERELVATITIGGSTSYADSVKGRFTISRDNAKNTVYLQMNSLKPEDTAVYYCAAVANPNRYRFDYWGQGSQVTVSS | high polyreactivity |
| QVQLVESGGGLVQAGGSLRLSCAASGSIFTSNAMGWYRQAPVKERELVASISSDGSTKYADSVKGRFTISRDNAKNTVYLQMNSLKPEDTAVYYCAADLGYWVYVEYDYWGQGTQVTVSS | low polyreactivity |
| QVQLVESGGGLVQAGGSLRLSCAASGITFFGYAMGWYRQAPGKERELVAGISRSTGRTYYADSVKGRFTISRDNAKNTVYLHMNSLKPEDTAVYYCNAELYPWPGVVRYNYWGQGTQVTVSS | high polyreactivity |

| Sequence | polyreactivity (PSR sort gate) |
| --- | --- |
| QVQHVESGGGLVQAGGSLSLSCAASGRTILWNAMGWYRQAPGKERELVAAITSGGRTYYADSVKGRFTISRDNAKNTVYLQMNSLIPEDTAVYYCAASTVYWSTVNSQARFNYWGQGTQVTVSS | high polyreactivity |
| QVQLVESGGGLVQAGGSLRLSCAASGRIFYRNAMGWYRQAPGKEREFVAAITFRSGGTYYADSVKGRFTISRDNAKNTVYLQMNSLKPEDTAVYYCATRYLGASRYGYWGQGTQVTVSS | high polyreactivity |
| QFQHVESVGGLVQAGGSLRLSCAASGRIFPYYALGWYREAPGKERELVAAISQSDGSTYYADSVKGRFTISRDNAKNTVYLQMNSLKPEDTAVYYCAKRQASYTQHRKVRGDYWGQGPQVTVSS | low polyreactivity |
| QVLLVESRGALVQAGGSLRLSCAASGSTFYWYAMGRYRQAPGKERELVASITRSGVRTYYADSVKGRFTISRDNGKNTVYLQMNSLKPEDTAVYYCAAERYYFPRSFRYGYWGQGTQVTVSS | low polyreactivity |
| QVQLVESGGGLVQAAGSLRLICDASGFTFDLYAMGWYRQAPGKERELVAAISWSGGSTRYADSVKGGFTISRDNSKNTVYLQMTSLKPEDTALYYCARQPRLYFKVKLYGYWGQGTQVTVSS | high polyreactivity |
| QVQLVESGGGLVQAGGSLRLSCAASGFIFDAYAMGWYRQAPGKERELVAAISSRGGSTYYADSVKGRFTISRDNAKNTVYLQMNSLKPEDTAVYYCAAPWYQGLDYWGQGTQVTVSS | high polyreactivity |
| QVQLVESGGGLVQAGVSLRLSCAASGRISVFYTMGWYRQAPGKERELVAVNRTSGGRTNYADSVKGRFTISRDNAKNTVDLQMNSLKPEDTAVYYCAARVVRYGYKYYYWGQGTQVTVSS | low polyreactivity |
| QVQLVESGGGVVQAGGSLRLSCAASGITYGRNTMGWYIHAPGKERELVAAIDSGGNTYADSVKGRFTISRDNAKNTVYLQMNSLKPEDTAVYYGAATFIQVVVNVQLYDYDYWGQGTQVNVSS | low polyreactivity |
| QVQLVESGGGLVEAGGSLRLSCAASGFTFYHNAMGWYRPAPGKERELVAAISSGGTTNYADSVKGRFTISRDNAKNTVYLQMNSLTPEDTAVYYCAARGWGPTRAYDYWGQGTQVTVSS | high polyreactivity |
| QVQLVESRGGLVQAGGSLRLSCAASGSTFGWYAMGWYRQAPGKERELVASITSGGRTNYADSVKGRFTISRDNAKITVYLQMNSLKPEDTAVYYCAKRVYGSYSLYDYWGQGTQVNVSS | low polyreactivity |
| QVQLVESGGGLVQAGGSLRLSCAASGSIFSVNTMGWYRQAPGKQRELVAAISESGDGTYYADSVKGRFTISRDNAKNTVYLQMNSLKPEDTAVYYCNADRQKGGGYYPHEFDYWGQGTQVTVSS | low polyreactivity |
| QVQLQESGGGLVHAGGSLRLSCAASGTISFINMMGWNRQAPGRERELVASINFGANTNYADSVKGRFTISRDNAKNTVYVQMNSLKPEDTAVYYCAVYDFDAYTLDYWGQGTLVTVSS | high polyreactivity |
| QVQLVESGGRLVQAGGSLRLSCAASGSILYIYAMGWYRQAPGKERELVAAISKNSADTYYADSVKGRFTISRDNAKNTVYLQMNSLKPEDTAVYYCAADVVKVAAYNYWGQGTQVTVSS | low polyreactivity |
| QVQLVESGGGLVQAGGSLRLSCAASGSTSLIYAMGWYRQAPGKERELVARISGSGGSTFYADSVKGRFTISRDNAKNTVFLQMNSLKPEDTAVYYCAAYIRGRRYNWATVGYNYWGQGTQVTVSS | high polyreactivity |
| QVQLVESGGGLVQAGGTLRLSCAASGSTFIGNAMGWYIQAPGKERELVAAITRSGGSTFYADSVKGRFTISRDNAKNTVYLQMNSLKPEDTAVYYCAARNGAYPALKEGDYWGQGTQVTVSS | high polyreactivity |
| QVQLVESGGGLVQAGGSLRLSCAASGLTFDWNTMGWYRQAPGKERELVATITYTGGSTYYADSVKGRFTISRDNAKNTVYLQMNSLKPEDTAVYFCAARRTRYRSYSRVRYTYDYWGQGTQVTVSS | high polyreactivity |
| QVQLVESGGGLVQAGGSLRLSCAASGITFGVYGMGWYRQAPGKERELVAAIDQSGDSTYYADSVKGRFTISRDNAKNTVYLQMNSLKPEDTAVYYCAAQSYDYWYDYDYWGQGTQVTVSS | high polyreactivity |
| QVHLVESGGGLVQAGGSLRLSCAASGSILAGYAMGWYRQAPGKEWELVAAISSGGRTYYADSVKGRFTISRDNAKNTVYLQMNSLKPEDTAVYYSAAGKYDGSRRMYYWGQGTQVTVSS | high polyreactivity |
| QVQLVESGGGLVQAGGSLRLSCAASGSTFDVNAMGWYRQAPGKERELVAAITQSGGSTFYADSVKGRFTISRDNAKNTVYLQMNSLKPEDTAVYYWGQGTQVTVSS | low polyreactivity |
| QVQLVESGGGLVQAGGSVRLICAASGSIFYTYAMGWYRQAPGKERELVAAISKRGGSTYDADSVKGRFTISRDNAKNTVYLQMNSLKPEDTAVYYCAADTQHVYGSNFYYWGQGTQVTVSS | high polyreactivity |
| QVQLVESGGGLVQAGGSLRLSCAASGFTFGTYTMGWYRQAPGKERELVAAISGSGGSTYYADSVKGRFTISRDNAKNTDYLQMNSLKPEDTAVYYCAAVGRSKRDGYWGQGTQVTVST | high polyreactivity |
